{"source": "patent US12410262B2", "about": "“Peptide conjugates of cytotoxins as therapeutics” (Cybrexa 2, Inc., priority 2019, dated 2025)", "key": {"HCT116": {"tested_on": "HCT116", "test": "cells", "assay_type": "cell-based, human", "settings": "96 h", "method": "Cells were plated in 96 well black walled-clear bottom plates (Griener), DLD-1 WT cells at 2500 cells per well, FaDu, and HeLa cells at 5000 cells per well, and HCT116 at 3000 cells per well, in growth media containing 10% FBS. Cells were allowed to adhere at room temperature for 60 minutes before returning to a 37 C, 5% CO2 incubator. After 24 hours, media was removed and replaced with fresh growth media containing various drug concentrations. Each drug concentration was added in triplicate. Non-drug treated controls contained growth media only. Cells were returned to the incubator. Ninety-six hours after addition of drug, cells were fixed with 4% paraformaldehyde for 20 minutes and stained with Hoechst at 1 ug/mL. The plates were imaged on a Cytation 5 auto imager (BioTek) and cells were counted using CellProfiler (http://cellprofiler.org). The percent cell growth delay was calculated and data plotted using GraphPad Prism"}, "[1]": {"test": "Glutathione cleavage study", "assay_type": "in vitro ADME", "settings": "for remaining at 4 h, 100 µM / remaining at 24 h, 100 µM: Tris buffer with 10 mM glutathione, Glutathione Challenge (10 mM), 100 μM conjugate, Tris pH 7.5, 37° C.", "method": "A 20 mM stock of conjugate was prepared in 100% DMSO. The stocks were subsequently diluted in 100 mM Tris, pH 7.5, to yield an intermediate dilution of 500 μM followed by an additional dilution of 1:5 in 100 mM Tris, pH 7.5 to give a final concentration of 100 μM of conjugate. 100 mM glutathione was prepared immediately prior to use in H2O and diluted 1:10 in challenge samples for a final glutathione challenge concentration of 10 mM. Samples were mixed by inversion and incubated at 37° C. for up to 24 hrs. […]\n(§1) Samples were thawed and extracted as follows: 8 μL of 25% phosphoric acid followed by 117 μL of 100% acetonitrile/0.1% TFA were added to each sample, mixed and centrifuged at 13000×G for 10 minutes. The supernatant was pipetted into 0.2 mL HPLC vials and placed on a Perkin Elmer Flexar HPLC autosampler. The following table summarizes HPLC conditions:\nData was analyzed by calculating the percentage reduction of compound (area of retention time peak of […] conjugate/area of retention time peak of conjugate at time 0)×100."}, "Plasma stability studies": {"test": "Plasma stability studies", "assay_type": "in vitro ADME", "settings": "rat plasma, 100 μM conjugate, 37° C.", "method": "A 20 mM stock of conjugate was prepared in 100% DMSO. The stocks were subsequently diluted in 100 mM Tris, pH 7.5 to yield an intermediate dilution of 500 μM and then diluted 1:5 directly into rat plasma to yield a final concentration of 100 μM of conjugate. Samples were mixed by inversion and incubated at 37° C. for up to 24 h. 50 μL samples were aliquoted into siliconized microfuge tubes at time 0, 4, and 24 h and immediately frozen at −80° C.\nas §1, with “100% Acetonitrile/0.1%” for “100% acetonitrile/0.1%”, “TFA was” for “TFA were”\nData was analyzed by calculating the percentage reduction of compound (area of retention time peak of incubated conjugate/area of retention time peak of conjugate at time 0)×100."}}}
{"compound": "CC[C@@]1(O)C(=O)OCc2c1cc1n(c2=O)Cc2c-1nc1cc(F)c(C)c3c1c2[C@@H](NC(=O)O[C@@H]1CCc2ccccc2[C@H]1SSC[C@H](NC(=O)[C@H](Cc1c[nH]c2ccccc12)NC(=O)[C@H](CC(C)C)NC(=O)[C@H](CC(C)C)NC(=O)[C@H](CC(=O)O)NC(=O)[C@H](CC(C)C)NC(=O)[C@H](CC(C)C)NC(=O)[C@H](CC(C)C)NC(=O)[C@@H](NC(=O)[C@H](CC(=O)O)NC(=O)[C@@H](NC(=O)[C@@H]1CCCN1C(=O)[C@H](Cc1ccccc1)NC(=O)[C@H](CC(C)C)NC(=O)[C@H](CC(C)C)NC(=O)[C@H](CC(=O)O)NC(=O)[C@H](CC(C)C)NC(=O)[C@H](Cc1ccc(O)cc1)NC(=O)[C@H](C)NC(=O)[C@H](CCCNC(=N)N)NC(=O)[C@H](Cc1c[nH]c2ccccc12)NC(=O)[C@@H]1CCCN1C(=O)[C@H](CC(N)=O)NC(=O)[C@H](CCC(N)=O)NC(=O)[C@H](CC(=O)O)NC(=O)[C@H](CC(=O)O)NC(=O)[C@H](C)N)[C@@H](C)O)[C@@H](C)O)C(=O)NCC(=O)O)CC3", "note": "[Compound 25]", "values": [{"measurement": "IC50", "setting": "HCT116", "value": 2.9, "unit": "nM"}, {"measurement": "remaining at 4 h, 100 µM", "setting": "[1]", "value": 42, "unit": "%"}, {"measurement": "remaining at 24 h, 100 µM", "setting": "[1]", "value": 4.1, "unit": "%"}, {"measurement": "remaining at 4 h, 100 µM", "setting": "Plasma stability studies", "value": 103, "unit": "%"}, {"measurement": "remaining at 24 h, 100 µM", "setting": "Plasma stability studies", "value": 104, "unit": "%"}]}
{"compound": "CC[C@@]1(O)C(=O)OCc2c1cc1n(c2=O)Cc2c-1nc1cc(F)c(C)c3c1c2[C@@H](NC(=O)O[C@H]1CCC[C@@H]1SSC[C@H](NC(=O)[C@H](Cc1c[nH]c2ccccc12)NC(=O)[C@H](CC(C)C)NC(=O)[C@H](CC(C)C)NC(=O)[C@H](CC(=O)O)NC(=O)[C@H](CC(C)C)NC(=O)[C@H](CC(C)C)NC(=O)[C@H](CC(C)C)NC(=O)[C@@H](NC(=O)[C@H](CC(=O)O)NC(=O)[C@@H](NC(=O)[C@@H]1CCCN1C(=O)[C@H](Cc1ccccc1)NC(=O)[C@H](CC(C)C)NC(=O)[C@H](CC(C)C)NC(=O)[C@H](CC(=O)O)NC(=O)[C@H](CC(C)C)NC(=O)[C@H](Cc1ccc(O)cc1)NC(=O)[C@H](C)NC(=O)[C@H](CCCNC(=N)N)NC(=O)[C@H](Cc1c[nH]c2ccccc12)NC(=O)[C@@H]1CCCN1C(=O)[C@H](CC(N)=O)NC(=O)[C@H](CCC(N)=O)NC(=O)[C@H](CC(=O)O)NC(=O)[C@H](CC(=O)O)NC(=O)[C@H](C)N)[C@@H](C)O)[C@@H](C)O)C(=O)NCC(=O)O)CC3", "note": "[Compound 15]", "values": [{"measurement": "IC50", "setting": "HCT116", "value": 1.7, "unit": "nM"}, {"measurement": "remaining at 4 h, 100 µM", "setting": "[1]", "value": 19.4, "unit": "%"}, {"measurement": "remaining at 24 h, 100 µM", "setting": "[1]", "value": 8.3, "unit": "%"}, {"measurement": "remaining at 4 h, 100 µM", "setting": "Plasma stability studies", "value": 105, "unit": "%"}, {"measurement": "remaining at 24 h, 100 µM", "setting": "Plasma stability studies", "value": 103, "unit": "%"}]}
{"compound": "CC[C@@]1(O)C(=O)OCc2c1cc1n(c2=O)Cc2c-1nc1cc(F)c(C)c3c1c2[C@@H](NC(=O)O[C@@H]1CCC[C@H]1SSC[C@H](NC(=O)[C@H](Cc1c[nH]c2ccccc12)NC(=O)[C@H](CC(C)C)NC(=O)[C@H](CC(C)C)NC(=O)[C@H](CC(=O)O)NC(=O)[C@H](CC(C)C)NC(=O)[C@H](CC(C)C)NC(=O)[C@H](CC(C)C)NC(=O)[C@@H](NC(=O)[C@H](CC(=O)O)NC(=O)[C@@H](NC(=O)[C@@H]1CCCN1C(=O)[C@H](Cc1ccccc1)NC(=O)[C@H](CC(C)C)NC(=O)[C@H](CC(C)C)NC(=O)[C@H](CC(=O)O)NC(=O)[C@H](CC(C)C)NC(=O)[C@H](Cc1ccc(O)cc1)NC(=O)[C@H](C)NC(=O)[C@H](CCCNC(=N)N)NC(=O)[C@H](Cc1c[nH]c2ccccc12)NC(=O)[C@@H]1CCCN1C(=O)[C@H](CC(N)=O)NC(=O)[C@H](CCC(N)=O)NC(=O)[C@H](CC(=O)O)NC(=O)[C@H](CC(=O)O)NC(=O)[C@H](C)N)[C@@H](C)O)[C@@H](C)O)C(=O)NCC(=O)O)CC3", "note": "[Compound 14]", "values": [{"measurement": "IC50", "setting": "HCT116", "value": 4.7, "unit": "nM"}, {"measurement": "remaining at 4 h, 100 µM", "setting": "[1]", "value": 14.9, "unit": "%"}, {"measurement": "remaining at 24 h, 100 µM", "setting": "[1]", "value": 6.5, "unit": "%"}, {"measurement": "remaining at 4 h, 100 µM", "setting": "Plasma stability studies", "value": 106, "unit": "%"}, {"measurement": "remaining at 24 h, 100 µM", "setting": "Plasma stability studies", "value": 106, "unit": "%"}]}
{"compound": "CC[C@@]1(O)C(=O)OCc2c1cc1n(c2=O)Cc2c-1nc1cc(F)c(C)c3c1c2[C@@H](NC(=O)O[C@@H]1COCC[C@H]1SSC[C@H](NC(=O)[C@H](Cc1c[nH]c2ccccc12)NC(=O)[C@H](CC(C)C)NC(=O)[C@H](CC(C)C)NC(=O)[C@H](CC(=O)O)NC(=O)[C@H](CC(C)C)NC(=O)[C@H](CC(C)C)NC(=O)[C@H](CC(C)C)NC(=O)[C@@H](NC(=O)[C@H](CC(=O)O)NC(=O)[C@@H](NC(=O)[C@@H]1CCCN1C(=O)[C@H](Cc1ccccc1)NC(=O)[C@H](CC(C)C)NC(=O)[C@H](CC(C)C)NC(=O)[C@H](CC(=O)O)NC(=O)[C@H](CC(C)C)NC(=O)[C@H](Cc1ccc(O)cc1)NC(=O)[C@H](C)NC(=O)[C@H](CCCNC(=N)N)NC(=O)[C@H](Cc1c[nH]c2ccccc12)NC(=O)[C@@H]1CCCN1C(=O)[C@H](CC(N)=O)NC(=O)[C@H](CCC(N)=O)NC(=O)[C@H](CC(=O)O)NC(=O)[C@H](CC(=O)O)NC(=O)[C@H](C)N)[C@@H](C)O)[C@@H](C)O)C(=O)NCC(=O)O)CC3", "note": "[Compound 20]", "values": [{"measurement": "IC50", "setting": "HCT116", "value": 7.9, "unit": "nM"}, {"measurement": "remaining at 4 h, 100 µM", "setting": "[1]", "value": 5.2, "unit": "%"}, {"measurement": "remaining at 24 h, 100 µM", "setting": "[1]", "value": 8, "unit": "%"}, {"measurement": "remaining at 4 h, 100 µM", "setting": "Plasma stability studies", "value": 98.7, "unit": "%"}, {"measurement": "remaining at 24 h, 100 µM", "setting": "Plasma stability studies", "value": 95.8, "unit": "%"}]}
{"compound": "CC[C@@]1(O)C(=O)OCc2c1cc1n(c2=O)Cc2c-1nc1cc(F)c(C)c3c1c2[C@@H](NC(=O)O[C@H]1COCC[C@@H]1SSC[C@H](NC(=O)[C@H](Cc1c[nH]c2ccccc12)NC(=O)[C@H](CC(C)C)NC(=O)[C@H](CC(C)C)NC(=O)[C@H](CC(=O)O)NC(=O)[C@H](CC(C)C)NC(=O)[C@H](CC(C)C)NC(=O)[C@H](CC(C)C)NC(=O)[C@@H](NC(=O)[C@H](CC(=O)O)NC(=O)[C@@H](NC(=O)[C@@H]1CCCN1C(=O)[C@H](Cc1ccccc1)NC(=O)[C@H](CC(C)C)NC(=O)[C@H](CC(C)C)NC(=O)[C@H](CC(=O)O)NC(=O)[C@H](CC(C)C)NC(=O)[C@H](Cc1ccc(O)cc1)NC(=O)[C@H](C)NC(=O)[C@H](CCCNC(=N)N)NC(=O)[C@H](Cc1c[nH]c2ccccc12)NC(=O)[C@@H]1CCCN1C(=O)[C@H](CC(N)=O)NC(=O)[C@H](CCC(N)=O)NC(=O)[C@H](CC(=O)O)NC(=O)[C@H](CC(=O)O)NC(=O)[C@H](C)N)[C@@H](C)O)[C@@H](C)O)C(=O)NCC(=O)O)CC3", "note": "[Compound 21]", "values": [{"measurement": "IC50", "setting": "HCT116", "value": 3.1, "unit": "nM"}, {"measurement": "remaining at 4 h, 100 µM", "setting": "[1]", "value": 9.5, "unit": "%"}, {"measurement": "remaining at 24 h, 100 µM", "setting": "[1]", "value": 12.6, "unit": "%"}, {"measurement": "remaining at 4 h, 100 µM", "setting": "Plasma stability studies", "value": 101, "unit": "%"}, {"measurement": "remaining at 24 h, 100 µM", "setting": "Plasma stability studies", "value": 98.2, "unit": "%"}]}
{"compound": "CC[C@@]1(O)C(=O)OCc2c1cc1n(c2=O)Cc2c-1nc1cc(F)c(C)c3c1c2[C@@H](NC(=O)CCSSC[C@H](NC(=O)[C@H](Cc1c[nH]c2ccccc12)NC(=O)[C@H](CC(C)C)NC(=O)[C@H](CC(C)C)NC(=O)[C@H](CC(=O)O)NC(=O)[C@H](CC(C)C)NC(=O)[C@H](CC(C)C)NC(=O)[C@H](CC(C)C)NC(=O)[C@@H](NC(=O)[C@H](CC(=O)O)NC(=O)[C@@H](NC(=O)[C@@H]1CCCN1C(=O)[C@H](Cc1ccccc1)NC(=O)[C@H](CC(C)C)NC(=O)[C@H](CC(C)C)NC(=O)[C@H](CC(=O)O)NC(=O)[C@H](CC(C)C)NC(=O)[C@H](Cc1ccc(O)cc1)NC(=O)[C@H](C)NC(=O)[C@H](CCCNC(=N)N)NC(=O)[C@H](Cc1c[nH]c2ccccc12)NC(=O)[C@@H]1CCCN1C(=O)[C@H](CC(N)=O)NC(=O)[C@H](CCC(N)=O)NC(=O)[C@H](CC(=O)O)NC(=O)[C@H](CC(=O)O)NC(=O)[C@H](C)N)[C@@H](C)O)[C@@H](C)O)C(=O)NCC(=O)O)CC3", "note": "[Compound 29]", "values": [{"measurement": "IC50", "setting": "HCT116", "value": 69, "unit": "nM"}, {"measurement": "degradation on glutathione exposure (FIG. 10)", "setting": "[1]; 10 mM glutathione over 16 h", "value": "released much faster than Compound 11"}, {"measurement": "remaining at 4 h, 100 µM", "setting": "[1]", "value": 3.1, "unit": "%"}, {"measurement": "remaining at 24 h, 100 µM", "setting": "[1]", "value": 5.9, "unit": "%"}, {"measurement": "remaining at 4 h, 100 µM", "setting": "Plasma stability studies", "value": 116, "unit": "%"}, {"measurement": "remaining at 24 h, 100 µM", "setting": "Plasma stability studies", "value": 110, "unit": "%"}]}
